Data from patent US20210380703A1 (RIGEL PHARMACEUTICALS, published 2021).
Residue numbers refer to the chain shown, from its start.

B1: 367_D11 (antibody, V domains shown)
VH: EVQLLESGGGLVQPGGSLRLSCAASGFTFDSYGMHWVRQAPGKGLEWVSNINYNGGYKSYADSVKGRFTISRDNSKNTLYLQMNSLRAEDTAVYYCARAANWHDTALDYWGQGTLVTVSS
VL: DIQMTQSPSSLSASVGDRVTITCRASQSIISYLNWYQQKPGKAPKLLIYAATSRASGVPSRFSGSGSGTDFTLTISSLQPEDFATYYCQQSYDSPLTFGGGTKVEIK
notes: Group I
B2: 368_C09 (antibody, V domains shown)
VH: B1 VH with D30S, G33S, K58T, S59G, A106H
VL: B1 VL with I30L, S31T, L33V, R54L, S94L
notes: Group I
B3: 368_B12 (antibody, V domains shown)
VH: B1 VH with N50G, G55S, K58T, N101T, A106H
VL: B1 VL with I30V, L33V, S94L
notes: Group II
B4: 368_E08 (antibody, V domains shown)
VH: B1 VH with S49A, G55S, K58T, S59G, N101T, A106H
VL: B1 VL with I30L, L33V, L47V, R54L, A55H, D93E, S94T
notes: Group II
B5: 368_A06 (antibody, V domains shown)
VH: B1 VH with G33S, S49A, N50G, G55S, S59G, A106H
VL: B1 VL with I30L, L33V, A55H, D93N
notes: Group I
B6: 367_F06 (antibody, V domains shown)
VH: B1 VH with D30S, H35N, N50S, G55S, K58T
VL: B1 VL with I30S, L33V, A51V
notes: Group I
B7: 368_F02 (antibody, V domains shown)
VH: B1 VH with D30S, H35N, S49A, N50S, G55S, K58T, A106H
VL: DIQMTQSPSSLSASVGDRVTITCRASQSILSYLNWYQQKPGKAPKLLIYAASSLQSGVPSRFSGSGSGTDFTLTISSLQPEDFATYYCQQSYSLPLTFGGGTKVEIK
notes: Group I
B8: 368_B04 (antibody, V domains shown)
VH: B1 VH with N50S, K58T, N101T, A106H
VL: B1 VL with I30V, L47V, D93E, S94N
notes: Group II
B9: 368_A12 (antibody, V domains shown)
VH: B1 VH with G33S, N50S, G55S, S59G
VL: B1 VL with I30L, S31T, L47V
notes: Group I
B10: 367_G03 (antibody, V domains shown)
VH: B1 VH with G33S, S49A, K58T, N101T, A106H
VL: B1 VL with I30V, L33V, L47V, A55H, S94L
notes: Group II
B11: 367_F08 (antibody, V domains shown)
VH: B1 VH with D30S, N50S, G55S, K58T, N101T, A106H
VL: B1 VL with I30L, L33V, L47V, Y92N, D93E, S94L
notes: Group II
B12: 368_C07 (antibody, V domains shown)
VH: B1 VH with D30S, S49A, N50G, G55S, K58T, N101T, A106H
VL: B1 VL with I30V, L33V, L47V, D93E, S94N
notes: Group II
B13: 368_F10 (antibody, V domains shown)
VH: B1 VH with D30S, H35N, S49A, N50G, G55S, K58T, A106H
VL: B1 VL with I30V, L33V, S94T
notes: Group I
B14: 368_D07 (antibody, V domains shown)
VH: B1 VH with S49A, N50S, K58T, S59G, N101T, A106H
VL: not shown
notes: Group II
B15: 368_B10 (antibody, V domains shown)
VH: B1 VH with S49A, N50S, K58T
VL: B1 VL with I30L, S31T, L47V, Y92D, D93E, S94L
notes: Group I
B16: 368_G11 (antibody, V domains shown)
VH: B1 VH with N50G, G55S, N101T
VL: B1 VL with I30L, S31T, Y92D, D93N, S94T
notes: Group II
B17: 368_C04 (antibody, V domains shown)
VH: B1 VH with K58T, N101T, A106H
VL: B1 VL with I30L, L33V, D93S, S94T
notes: Group II
B18: 368_E05 (antibody, V domains shown)
VH: B1 VH with G33S, N50S, N101T, A106H
VL: B1 VL with I30L, L47V, D93S
notes: Group II
B19: 369_A12 (antibody, V domains shown)
VH: B1 VH with D30S, G33S, S49A, N50S, G55S, K58T, S59G, N101T, A106H
VL: B1 VL with I30L, S31T, A55H, S94L
notes: Group II
B20: 368_D09 (antibody, V domains shown)
VH: B1 VH with S49A, N50G, G55S, A106H
VL: B1 VL with I30V, L33V, R54L, S94N
notes: Group I
B21: 367_E10 (antibody, V domains shown)
VH: B1 VH with D30S, N50S, K58T, S59G, N101T, A106H
VL: B1 VL with I30L, L33V, D93E, S94L
notes: Group II
B22: 367_G11 (antibody, V domains shown)
VH: B1 VH with D30S, S49A, N50S, K58T, N101T, A106H
VL: B1 VL with I30L, S31T, A55H, Y92D
notes: Group II
B23: 368_H03 (antibody, V domains shown)
VH: B1 VH with S31D, G33S, S49A, N50S, K58T, S59G, N101T, A106H
VL: B1 VL with I30L, L33V, L47V, A51V, A55H, D93S, S94N
notes: Group II
B24: 368_B03 (antibody, V domains shown)
VH: B1 VH with S31D, H35N, N50G, K58T
VL: B1 VL with I30L, S31T, L47V, R54L, Q90H, D93E, S94N
notes: Group I
B25: 368_B08 (antibody, V domains shown)
VH: B1 VH with H35N, N50S, K58T, A106H
VL: B1 VL with I30L, S31T, L33V, L47V, D93E, S94N
notes: Group I
B26: 367_F10 (antibody, V domains shown)
VH: B1 VH with H35N, N50G, G55S, K58T, N101T, A106H
VL: B1 VL with I30L, S31T, S94T
notes: Group II
B27: 368_D03 (antibody, V domains shown)
VH: B1 VH with D30S, S31D, G33S, S49A, N50S, K58T, N101T, A106H
VL: B1 VL with S31T, L33V, A51T, S94L
notes: Group II
B28: 367_E08 (antibody, V domains shown)
VH: B1 VH with D30S, S31D, H35N, S49A, N50S, K58T, N101T, A106H
VL: B1 VL with I30L, A51T, S94N
notes: Group II
B29: 369_A04 (antibody, V domains shown)
VH: B1 VH with S49A, N50S, N101T, A106H
VL: B1 VL with I30V, L33V, L47V, R54L, S94L
notes: Group II
B30: 368_C12 (antibody, V domains shown)
VH: B1 VH with S49A, N50S, K58T, N101T, A106H
VL: B1 VL with I30L, S31T, Y92D, D93S, S94N
notes: Group II
B31: 368_D06 (antibody, V domains shown)
VH: B1 VH with D30S, H35N, K58T, S59G, N101T, A106H
VL: B1 VL with I30L, L33V, L47V, A55H, D93E, S94N
notes: Group II
B32: 368_B11 (antibody, V domains shown)
VH: B1 VH with N50G, A106H
VL: B1 VL with I30L, T52S, R54L, A55Q
notes: Group I
B33: 368_A02 (antibody, V domains shown)
VH: B1 VH with H35N, S49A, N50G, A106H
VL: B1 VL with L33V, L47V, S94T
notes: Group I
B34: 367_H08 (antibody, V domains shown)
VH: B1 VH with H35N, N50S, K58T, N101T, A106H
VL: B1 VL with I30L, S31T, L33V, A55H, D93N, S94L
notes: Group II
B35: 367_H01 (antibody, V domains shown)
VH: B1 VH with H35N, N50G
VL: B1 VL with I30L, S31T, L47V, S94N
notes: Group I

Each binder was assayed against T1, human ACVR2A (human, UniProt P27037 20-135, limits assumed) (assay: ELISA).
T1 construct: also called activin receptor, type II A
T1 sequence (P27037 20-135 limits assumed): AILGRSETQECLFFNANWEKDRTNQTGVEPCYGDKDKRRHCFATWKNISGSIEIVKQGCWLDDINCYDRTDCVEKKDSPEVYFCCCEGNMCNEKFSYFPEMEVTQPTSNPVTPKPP
Method in brief: (§1)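 Binding signal was read by ELISA after ACVR2A-specific monoclonal antibodies were tested against human ACVR2A and mouse ACVR2A, with human Fc as the negative control.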
Further: test concentration or dose not given here.

| optical density [OD] | Binder |
| --- | --- |
| 2.4 | B1 |
| 2.48 | B2 |
| 2.51 | B3 |
| 2.27 | B4 |
| 2.25 | B5 |
| 2.01 | B6 |
| 2.18 | B7 |
| 2.27 | B8 |
| 3.01 | B9 |
| 2.59 | B10 |
| 2.08 | B11 |
| 2.58 | B12 |
| 2.25 | B13 |
| 2.2 | B14 |
| 2.35 | B15 |
| 2.1 | B16 |
| 2.48 | B17 |
| 1.87 | B18 |

| optical density [OD] | Binder |
| --- | --- |
| 3.17 | B19 |
| 2.19 | B20 |
| 2.77 | B21 |
| 2.56 | B22 |
| 2.44 | B23 |
| 2.04 | B24 |
| 1.98 | B25 |
| 2.21 | B26 |
| 2.39 | B27 |
| 2.04 | B28 |
| 2.76 | B29 |
| 2.49 | B30 |
| 2.03 | B31 |
| 2.14 | B32 |
| 2.57 | B33 |
| 2.27 | B34 |
| 2.82 | B35 |

The binders below were run against mouse ACVR2A (mouse, UniProt P27038 20-135, limits assumed) (assay: ELISA).
Sequence of mouse ACVR2A (P27038 20-135 limits assumed): as the sequence (P27037 20-135 limits assumed) above, with K20R, V73I counted along it
Method in brief: as §1

| optical density [OD] | Binder |
| --- | --- |
| 2.54 | B1 |
| 2.61 | B2 |
| 2.47 | B3 |
| 2.67 | B4 |
| 2.52 | B5 |
| 2.04 | B6 |
| 2.27 | B7 |
| 2.73 | B8 |
| 2.78 | B9 |
| 2.63 | B10 |
| 2.19 | B11 |
| 2.37 | B12 |
| 2.6 | B13 |
| 2.46 | B14 |
| 2.42 | B15 |
| 2.37 | B16 |
| 2.47 | B17 |
| 2.07 | B18 |

| optical density [OD] | Binder |
| --- | --- |
| 3.24 | B19 |
| 2.11 | B20 |
| 2.98 | B21 |
| 2.67 | B22 |
| 2.73 | B23 |
| 2.04 | B24 |
| 2.18 | B25 |
| 2.36 | B26 |
| 2.55 | B27 |
| 2.37 | B28 |
| 2.86 | B29 |
| 2.45 | B30 |
| 2.11 | B31 |
| 2.35 | B32 |
| 2.74 | B33 |
| 2.47 | B34 |
| 2.69 | B35 |

What follows are binders tested against T2, biotinylated goat anti-human kappa light chain (assay: ELISA, positive control).
T2 construct: positive control of the ELISA
Method in brief: as §1

| optical density [OD] | Binder |
| --- | --- |
| 3.39 | B1 |
| 3.46 | B2 |
| 3.49 | B3 |
| 3.5 | B4 |
| 3.28 | B5 |
| 3.35 | B6 |
| 3.65 | B7 |
| 3.29 | B8 |
| 3.69 | B9 |
| 3.6 | B10 |
| 3.54 | B11 |
| 3.31 | B12 |
| 3.52 | B13 |
| 3.26 | B14 |
| 3.02 | B15 |
| 3.5 | B16 |
| 3.67 | B17 |
| 3.37 | B18 |

| optical density [OD] | Binder |
| --- | --- |
| 3.72 | B19 |
| 3.46 | B20 |
| 3.48 | B21 |
| 3.56 | B22 |
| 3.56 | B23 |
| 3.38 | B24 |
| 3.21 | B25 |
| 3.42 | B26 |
| 3.49 | B27 |
| 3.43 | B28 |
| 3.5 | B29 |
| 3.62 | B30 |
| 3.41 | B31 |
| 3.61 | B32 |
| 3.69 | B33 |
| 3.54 | B34 |
| 3.65 | B35 |
